± gives the uncertainty stated by the source.
Test: self-splicing fitness, log relative to wild type (ln ratio); higher = more splicing; Tetrahymena group I intron in knt gene, E. coli kanamycin selection, DiMSum; sequences stand for … in CUCUCU…GGAGGGAAAAGUUAUCAGGCAUGCACCUGGUAGCUAGUCUUUAAACCAAUAGAUUGCAUCGGUUUAAAAGGCAAGACCGUCAAAUUGCGGGAAAGGGGUCAACAGCCGUUCAGUACCAAGUCUCAGGGGAAACUUUGAGAUGGCCUUGCAAAGGGUAUGGUAAUAAGCUGACGGACAUGGUCCUAACCACGCAGCCAAGUCCUAAGUCAACAGAUCUUCUGUUGAUAUGGAUGCAGUUCACAGACUAAAUGUCGGUCGGGGAAGAUGUAUUCUUCUCAUAAGAUAUAGUCGGACCUCUCCUUAAUGGGAGCUAGCGGAUGAAGUGAUGCAACACUGGAGCCGCUGGGAACUAAUUUGUAUGCGAAAGUAUAUUGAUUAGUUUUGGAGUACUCGUGGUCG
Procedure, shortened: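 Fitness was computed with DiMSum as the error-weighted combination of replicate fold changes, kanamycin versus none, each normalised to wild type. The library randomised all eight intron nucleotides of the P1ex region, with the intron placed in the knt kanamycin-resistance gene on pET-22b(+) in E. coli BL21(DE3). Six replicate transformations were grown overnight at 37°C or 30°C on LB agar with or without 25 μg/mL kanamycin, plus 100 μg/mL carbenicillin, 50 μM IPTG and 0.2% rhamnose. Pooled colonies were amplicon-sequenced on an Illumina HiSeq 2500.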

Sequence	self-splicing fitness (ln) (30 °C)	self-splicing fitness (ln) (37 °C)
UAUCAGCAAUAUUACGAUCU	-0.554 ± 0.1	-0.0299 ± 0.098
UAUCAGCAAUAUUACGCAAA	-0.36 ± 0.12	-0.755 ± 0.11
UAUCAGCAAUAUUACGCACC	-0.885 ± 0.22	0.3 ± 0.29
UAUCAGCAAUAUUACGCAUA	-0.316 ± 0.11	0.0108 ± 0.11
UAUCAGCAAUAUUACGCUAC	-4.2 ± 0.42	-3.24 ± 0.26
UAUCAGCAAUAUUACGCUCC	-1 ± 0.29	-0.504 ± 0.31
UAUCAGCAAUAUUACGCUUU	-1.48 ± 0.086	-0.159 ± 0.098
UAUCAGCAAUAUUACGGAAA	-0.825 ± 0.11	-0.253 ± 0.12
UAUCAGCAAUAUUACGGCAC	-2.52 ± 0.17	-0.753 ± 0.14
UAUCAGCAAUAUUACGGUAU	-3.73 ± 0.21	-2.01 ± 0.18
UAUCAGCAAUAUUACGUAGA	-0.562 ± 0.058	-0.0988 ± 0.081
UAUCAGCAAUAUUACGUUAA	-0.97 ± 0.093	-0.0683 ± 0.11
UAUCAGCAAUAUUACGUUAG	-1.22 ± 0.095	-1.03 ± 0.094
UAUGAGCAAUAUUACGACCG	-1.61 ± 0.4	-1.53 ± 0.34
UAUGAGCAAUAUUACGAGUG	-1.52 ± 0.095	-0.43 ± 0.11
UAUGAGCAAUAUUACGCAGA	-3.3 ± 0.29	-2.6 ± 0.23
UAUGAGCAAUAUUACGCCUG	-1.44 ± 0.14	-1.57 ± 0.26
UAUGAGCAAUAUUACGCUAC	-2.79 ± 0.2	-2.25 ± 0.43
UAUGAGCAAUAUUACGCUAU	-1.38 ± 0.31	-1.3 ± 0.23
UAUGAGCAAUAUUACGCUGA	-2.75 ± 0.33	-1.13 ± 0.3
UAUGAGCAAUAUUACGCUUG	-3.32 ± 0.4	0.0607 ± 0.25
UAUGAGCAAUAUUACGGAAU	-3.65 ± 0.47	-2.44 ± 0.38
UAUGAGCAAUAUUACGGUGU	-3.54 ± 0.23	-2.63 ± 0.2
UAUGAGCAAUAUUACGUAAA	-3.46 ± 0.32	-1.59 ± 0.19
UAUGAGCAAUAUUACGUAAC	-2.86 ± 0.36	

Sequence	self-splicing fitness (ln) (30 °C)	self-splicing fitness (ln) (37 °C)
UAUGAGCAAUAUUACGUAGA	-2.7 ± 0.18	-2.46 ± 0.2
UAUGAGCAAUAUUACGUAUU		-3.61 ± 0.35
UAUGAGCAAUAUUACGUGAA	-2.98 ± 0.33	-1.35 ± 0.17
UAUGAGCAAUAUUACGUUAG	-2.63 ± 0.17	-2.23 ± 0.22
UAUGAGCAAUAUUACGUUAU	-3.87 ± 0.33	-2.46 ± 0.19
UAUUAGCAAUAUUACGAAGA	-1.81 ± 0.17	-1.75 ± 0.26
UAUUAGCAAUAUUACGAAGU	-2.67 ± 0.42	-2.12 ± 0.4
UAUUAGCAAUAUUACGACCC	-3.2 ± 0.38	-0.71 ± 0.33
UAUUAGCAAUAUUACGACGA	-0.31 ± 0.18	-0.557 ± 0.23
UAUUAGCAAUAUUACGAUGG	-1.24 ± 0.094	-0.174 ± 0.11
UAUUAGCAAUAUUACGCAAU	-2.79 ± 0.28	-1.77 ± 0.27
UAUUAGCAAUAUUACGCAGG	-1.43 ± 0.14	-0.962 ± 0.14
UAUUAGCAAUAUUACGCCGG	-0.99 ± 0.22	-0.907 ± 0.26
UAUUAGCAAUAUUACGCGAA	-2.22 ± 0.29	-0.951 ± 0.17
UAUUAGCAAUAUUACGCGUC	-4.05 ± 0.35	-2.57 ± 0.26
UAUUAGCAAUAUUACGCUAC	-2.5 ± 0.41	-1.15 ± 0.47
UAUUAGCAAUAUUACGCUCU	-1.02 ± 0.17	-0.332 ± 0.32
UAUUAGCAAUAUUACGCUUA	-1.05 ± 0.2	-0.89 ± 0.25
UAUUAGCAAUAUUACGGCAG	-0.281 ± 0.085	-0.424 ± 0.12
UAUUAGCAAUAUUACGGCCA	-0.0346 ± 0.21	-0.902 ± 0.16
UAUUAGCAAUAUUACGGCGG	-0.834 ± 0.11	-0.195 ± 0.12
UAUUAGCAAUAUUACGGGCA	-0.498 ± 0.19	-0.39 ± 0.17
UAUUAGCAAUAUUACGGUCA	-0.76 ± 0.1	-0.0892 ± 0.095
UAUUAGCAAUAUUACGUAGG	-1.57 ± 0.14	-1.33 ± 0.23
UAUUAGCAAUAUUACGUCAU	-3.69 ± 0.31	-2.81 ± 0.27

Sequence	self-splicing fitness (ln) (30 °C)	self-splicing fitness (ln) (37 °C)
UAUUAGCAAUAUUACGUCGA	-1.27 ± 0.16	-0.984 ± 0.17
UAUUAGCAAUAUUACGUGUG	-0.846 ± 0.067	-0.549 ± 0.084
UAUUAGCAAUAUUACGUGUU	-3.04 ± 0.29	-2.86 ± 0.32
UAUUAGCAAUAUUACGUUUU		-0.0777 ± 0.32
UCAAAGCAAUAUUACGAAUC		-2.76 ± 0.38
UCAAAGCAAUAUUACGACCU	-1.84 ± 0.19	-0.48 ± 0.19
UCAAAGCAAUAUUACGCAGC	-3.94 ± 0.29	-2.72 ± 0.17
UCAAAGCAAUAUUACGCCAU	-3.37 ± 0.24	-2.27 ± 0.19
UCAAAGCAAUAUUACGCUAU	-3.44 ± 0.22	-1.41 ± 0.18
UCAAAGCAAUAUUACGGACA	-0.451 ± 0.13	0.0835 ± 0.14
UCAAAGCAAUAUUACGGCAA	-1.37 ± 0.15	-0.568 ± 0.12
UCAAAGCAAUAUUACGGCUA	-0.599 ± 0.1	-1.31 ± 0.13
UCAAAGCAAUAUUACGGCUC		-0.154 ± 0.2
UCAAAGCAAUAUUACGGGAU	-2.04 ± 0.16	-2.46 ± 0.25
UCAAAGCAAUAUUACGGGGG	-2.55 ± 0.14	-1.49 ± 0.14
UCAAAGCAAUAUUACGGUCA	-0.88 ± 0.1	-0.6 ± 0.1
UCAAAGCAAUAUUACGUAUA	-3.27 ± 0.18	-2.17 ± 0.17
UCAAAGCAAUAUUACGUCAA	-2.84 ± 0.23	-2.71 ± 0.29
UCAAAGCAAUAUUACGUGCU	-4.45 ± 0.3	-2.93 ± 0.21
UCAAAGCAAUAUUACGUGUG	-1.51 ± 0.058	-0.749 ± 0.066
UCACAGCAAUAUUACGAACC	-1.05 ± 0.33	-1.68 ± 0.34
UCACAGCAAUAUUACGACCU	-2.97 ± 0.24	-1.16 ± 0.19
UCACAGCAAUAUUACGAGAC	-4.56 ± 0.46	-2.61 ± 0.2
UCACAGCAAUAUUACGAGGG	-2.01 ± 0.088	-1.28 ± 0.12
UCACAGCAAUAUUACGAGUU	-3.54 ± 0.17	-2.08 ± 0.14

Sequence	self-splicing fitness (ln) (30 °C)	self-splicing fitness (ln) (37 °C)
UCACAGCAAUAUUACGAUAG	-2.75 ± 0.14	-1.22 ± 0.12
UCACAGCAAUAUUACGAUUA	-1.43 ± 0.1	-0.545 ± 0.11
UCACAGCAAUAUUACGAUUU	-4.01 ± 0.21	-0.814 ± 0.11
UCACAGCAAUAUUACGCCAA	-3.45 ± 0.44	-2.74 ± 0.38
UCACAGCAAUAUUACGCCUA	-1.95 ± 0.3	-0.577 ± 0.18
UCACAGCAAUAUUACGCGGG	-3.28 ± 0.12	-2.56 ± 0.16
UCACAGCAAUAUUACGCUGG	-3.9 ± 0.26	-2.94 ± 0.22
UCACAGCAAUAUUACGGAAU	-4.32 ± 0.25	-2.97 ± 0.22
UCACAGCAAUAUUACGGCCG	-1.24 ± 0.1	-0.536 ± 0.15
UCACAGCAAUAUUACGGCGA	0.0998 ± 0.092	0.202 ± 0.094
UCACAGCAAUAUUACGGCGU	-3.04 ± 0.19	-2.93 ± 0.2
UCACAGCAAUAUUACGGCUU	-3.43 ± 0.22	-1.85 ± 0.17
UCACAGCAAUAUUACGGUAA	-1 ± 0.084	-0.187 ± 0.088
UCACAGCAAUAUUACGUACU	-2.82 ± 0.17	-2.09 ± 0.22
UCACAGCAAUAUUACGUAGA	-1.09 ± 0.063	-0.0941 ± 0.075
UCACAGCAAUAUUACGUCCG	-1.21 ± 0.086	-0.358 ± 0.098
UCACAGCAAUAUUACGUUCC	-3.38 ± 0.21	-1.47 ± 0.22
UCACAGCAAUAUUACGUUGG	-2.84 ± 0.11	-2.81 ± 0.18
UCAGAGCAAUAUUACGAACU	-2.02 ± 0.33	
UCAGAGCAAUAUUACGAGUG	-2.93 ± 0.29	-0.458 ± 0.17
UCAGAGCAAUAUUACGAUGG	-2.97 ± 0.21	-1.33 ± 0.2
UCAGAGCAAUAUUACGCGAU	-3.02 ± 0.26	-2.08 ± 0.4

Source: the supplement of paper PMC7877785
